# Laboratory results as given in patent US20190191748A1.
# Target: moAb G12 conjugated to HRP (peroxidase)
# Assay: competitive ELISA, gliadin-coated plate, G12-HRP; reference OM719
row,Substance,cross-reactivity (CR) = (IC50 of OM719 / IC50 of the variety) x 100
1,avenins (prolamins) extracted from oat variety OA729,75%
2,avenins (prolamins) extracted from oat variety OC723,12%
3,avenins (prolamins) extracted from oat variety OE717,60%
4,avenins (prolamins) extracted from oat variety OH727,25%
5,avenins (prolamins) extracted from oat variety OL715,24%
